Target: recombinant B7-H4 protein (Phe29 to Ala258) (Homo sapiens, UniProt Q7Z7D3)
Assay: ELISA

Sequence of recombinant B7-H4 protein (Phe29 to Ala258) (Q7Z7D3 29-258): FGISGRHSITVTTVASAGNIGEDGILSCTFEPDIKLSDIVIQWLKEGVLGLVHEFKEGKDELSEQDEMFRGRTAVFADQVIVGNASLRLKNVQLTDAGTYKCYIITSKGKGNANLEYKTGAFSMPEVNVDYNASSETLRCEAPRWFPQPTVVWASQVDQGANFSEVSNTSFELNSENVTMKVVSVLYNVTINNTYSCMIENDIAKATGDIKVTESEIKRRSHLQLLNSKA

B1: anti-B7-H4 scFv S2 (scFv, V domains shown)
VH: AVTLDESGGGLQTPGGGLSLVCKASGFTFSSYGMGWMRQVPGKGLEYVAVIDAGSGTWYATAVKGRATISRDNGQSTVRLQLNNLRAEDTATYYCAKSANAGAPDGAWIDAWGHGTEVIVSS
VL: LTQPSSVSANLGGTVEITCSGGSGGYGWFQQKSPGSAPVTLIYNNNKRPSDIPSRFSGSKSGSTATLTITGVRAEDEAVYYCGGWDSIDSGIFGAGTTLTVL
Binder B1 has an EC50 of ~22 nM.

B2: anti-B7-H4 scFv S4 (scFv, V domains shown)
VH: AVTLDESGGGLQTPGGALSLVCKASGFTFSSYGMGWMRQVPGKGLEYVAVIDAGSGTWYATAVKGRATISRDNGQSTVRLQLNNLRAEDTATYYCAKSANAGAPDGAWIDAWGHGTEVIVSS
VL: LTQPSSVSANLGETVKITCSGGSYSYGWYQQKSPGSAPVTVIYDNNKRPSDIPSRFSGSKSGSTGTLTITGVQAEDEAIYYCGSRDSNTGYAAFGAGTTLTVL
B2 gave an EC50 of ~33 nM.

Reference: publication PMC8390317 (Experimental Animals, 2021)
